System: MS2 coat protein
Experiment: apparent KD of MS2 coat protein; designed switch direction (-1 OFF switch, 1 ON switch): -1; higher = weaker reporter binding
Outline: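 RNA switches sharing common flanks were transcribed by stalled E. coli RNA polymerase on Illumina chips. A doubling series of SNAP-549-labelled MS2 coat protein, from 0.7 or 1.5 nM to 3 µM, was applied in Tris-HCl pH 7.5 buffer with KCl, MgCl2, BSA, DTT, tRNA and Tween-20. Each step lasted 0.8–1.5 h at the bottom of the series and 10–20 min at the top. Normalised cluster fluorescence was curve-fitted, giving apparent KD as the per-design median over clusters.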

[1] = Eterna round: R95, input ligand: microRNA oligo, concentration not stated
[2] = input ligand: microRNA oligo, concentration not stated
[3] = Eterna round: R95, input ligand: FMN 200 uM
[4] = Eterna round: R95, input ligand: none

Row | Sequence | apparent KD of MS2 coat protein (input ligand: FMN 200 uM) [nM] | apparent KD of MS2 coat protein (input ligand: none) [nM] | apparent KD of MS2 coat protein [1] [nM] | apparent KD of MS2 coat protein [2] [nM] | apparent KD of MS2 coat protein [3] [nM] | apparent KD of MS2 coat protein [4] [nM]
1 | UUAAGUUCAGGAUAUGAUGAAUUAAACAUGAGGAUCACCCAUGUAGAUCCUGAAUUAACAUCAGAAGGGAAUAUUU [JL-ex5-4.52 Brourd mod] (Eterna round: R97, puzzle: Exclusion 5) | 24.4 | 13.5 | – | – | – | –
2 | CCCAUGUCAGGAUAUUAAUUGGACGGGAAAUCCCGCCCACUUGAGAAGGGACAUGAGGAUCACCCAUGUAAAAC [Esatedbe] (Eterna round: R97, puzzle: Exclusion 4) | 54.7 | 385 | – | – | – | –
3 | GCACGGUAAGUGAGGAUAUACCUCUGGAUACAGAGGUAGAAGGCACAUGAGGAUCACCCAUGUCCAAGCCGUGC [Fiskers BMX 4 - 84] (puzzle: Brourd's mod of Exclusion 4) | – | – | 22.8 | – | – | –
4 | UUCCUCACUUCUUUGACUCACAUGAGGAUCACCCAUGUAAUAUAGGAUAUGCAUUUUAUUUCUUUGCAGAAGGAUAUUAGUUUU [JR_ExcNG3_Sub088] (Eterna round: R96, puzzle: Exclusion NG 3) | – | – | – | 34.7 | – | –
5 | UUAUUACAAGCAAGAUCCCACAUGAGGAUCACCCAUGUGCUCGUCUUAUAAGGUACUGUGACGAAAGUCACGGUACC [Sensor 3, v1 - 100] (puzzle: Sensor v3, turn-off variant 1) | – | – | 701 | – | 25.8 | 24.7
6 | UAGAAGUCAGGAUAUCCAUGGCGGCACUUGCGUGGUGGCGUGGAGAAGGGACAUGAGGAUCACCCAUGUAAAGG [salish99-ex4-045] (Eterna round: R96, puzzle: Exclusion 4) | 192 | 100 | – | 63.1 | – | –
7 | AAAUUAGCAAGUAGAUCCGACAUGAGGAUCACCCAUGUUAUCUGAAAGAACGCAGAAUAAUUGUGAGCUCGUCUAAA [Sensor-V1 #3] (Eterna round: R97, puzzle: Sensor, turn-off variant 1) | 162 | 181 | – | – | – | –
8 | CAGCUGUGAGGAUAUACAUGAGGAUCACCCAUGUUAAGGAAGUGGUGUAUAUUGUAGUGUAGAAGGCACUUGUC [JR_Ex3_Sub026] (Eterna round: R97, puzzle: Exclusion 3) | 234 | 123 | – | – | – | –
9 | GAUUAUGCGAGCUUUAGGGACAUGAGGAUCACCCAUGUUCGUCUUAUUGGUCUAGGUACACUGACAUACCUAAAUCU [JMF 68] (puzzle: Sensor v3, turn-off variant 1) | – | – | 37.2 | – | 22.7 | 23
10 | ACAUGAGGAUCACCCAUGUACACGUAAUGGCUCAUGUAGAGUGAGGAUAUGUGAGACGAACGAGAACAGAAGGCACAAGACAGG [Deportation 9 - Jieux - Exclusion NG 3] (Eterna round: R96, puzzle: Exclusion NG 3) | 29.1 | 35.9 | – | 30.1 | – | –
11 | AGCCCUGCAGGAUAUGCCCGGGAUAACAUGAGGAUCACCCAUGUGACCGAUUGUUAUCCUGCAGAAGGGCAUGGGA [JL-EX5-4.12 ViennaUCT mod] (Eterna round: R97, puzzle: Exclusion 5) | 172 | 161 | – | – | – | –
12 | UUCAUUGCAGGAUAUACAUGAGGAUCACCCAUGUGACCAGUGGCCUGUUGCGGCUCCAGUAGAAGGGCAUGUGU [Eternabot (L2) Solution 89] (Eterna round: R97, puzzle: Exclusion 3) | 63.8 | 61.2 | – | – | – | –
13 | GUGUAGGCAGGAUAUACAUGAGGAUCACCCAUGUGAAUAAGAUAGAAUAAGAUAAAGUGUAGAAGGGUUAGUGU [Excluse me!!! 23 - Jieux - Exclusion 3] (puzzle: Exclusion 3) | – | – | 31.7 | – | – | –
14 | UAAAAUAGUGUGAGGAUAUGCUGGUCCUUGGAUCAGCAGAAGGCACAUGAGGAUCACCCAUGUAGAUAAUAAUA [Mat - Exclusion 4 - JL Mod - D26] (puzzle: Brourd's mod of Exclusion 4) | – | – | 49.6 | – | 189 | 78
15 | GAUUCGGGAGGAUAUACAUGAGGAUCACCCAUGUGUAUAUAAUAUGUUAAGUUAUCAUGUAGAAGGUUUGGGUC [-16.5, -16.2 kcal, 30% A] (Eterna round: R97, puzzle: Exclusion 3) | 38 | 49 | – | – | – | –
16 | GUCAGACGAGGAUAUGAUGUCAAAGACAUGAGGAUCACCCAUGUGAUCAAUUAAUUAAGAUCAGAAGGCGUCUGAC [E5/2-A3] (Eterna round: R97, puzzle: Exclusion 5) | 172 | 222 | – | – | – | –
17 | GGUCAAGAACAGAUCCGCGCUGCCCUCGACCGCUCAUUUACAUGAGGAUCACCCAUGUUUUUUGCUUGUCUUGUUAC [Vezageis] (puzzle: Sensor v3, turn-off variant 2) | – | – | 57 | – | 17.2 | 17.1

Row | Sequence | apparent KD of MS2 coat protein (input ligand: FMN 200 uM) [nM] | apparent KD of MS2 coat protein (input ligand: none) [nM] | apparent KD of MS2 coat protein [1] [nM] | apparent KD of MS2 coat protein [2] [nM] | apparent KD of MS2 coat protein [3] [nM] | apparent KD of MS2 coat protein [4] [nM]
18 | AUAAAUCAUGUAGGAUAUGUGUGGCGAAGCUAUACAGAAGGACAUGAGGAUCACCCAUGUUCUUCCGUCUGCGUACAGACGGAA [11th something] (Eterna round: R96, puzzle: Exclusion NG 1) | 228 | 29 | – | 19.1 | – | –
19 | UACGAGUUAGGAUAUGCUUUGGGCUCGCUUUCCUUCGAUAAACUUGAGGAUCACCCAAGUAGAAGGAACUUGUA [Mod 34 - Jieux - Exclusion 2] (Eterna round: R97, puzzle: Exclusion 2) | 49.2 | 29.6 | – | – | – | –
20 | GCUUUUCUUUUCCUUUCUUACAUGAGGAUCACCCAUGUUUCUUGUCGCGCUCGCGUUGCUCGUCUGUCUGUCUGUUG [salish99_TOv1_r3_079] (puzzle: Sensor v3, turn-off variant 1) | – | – | 28.9 | – | 43.1 | 54.7
21 | AUCAGCUCGUGAGGAUAUACAUGAGGAUCACCCAUGUGGUCAAUAGCAGCUUCGGCUGCAUACAUGUAGAAGGCACGAGCUGAU [ENG2/7-A2] (Eterna round: R96, puzzle: Exclusion NG 2) | 36.6 | 30.1 | – | 58.5 | – | –
22 | AUGGGUACUUUCGGAGCGACAUGAGGAUCACCCAUGUAUGUUGAGGAUAUCCACUGCUAAGGACGGGAGAAGGCAGUGUACUGU [Ex NG3 #83] (Eterna round: R96, puzzle: Exclusion NG 3) | 26.1 | 26.4 | – | 16 | – | –
23 | ACAAUGUUAGGAUAUCUGACAACUAGCCUCGGCUAGUCGAAAGAGAAGGAACAUGAGGAUCACCCAUGUAGAUC [EX4 #71] (Eterna round: R97, puzzle: Exclusion 4) | 523 | 146 | – | – | – | –
24 | UUUUUAUAUGAAGGAUAUACUUAACAUGAGGAUCACCCAUGUGGUGUUGUGAGUGAGUGAGUUUAGUAGAAGGUCAACGAUUUU [JMF's solution 58] (Eterna round: R96, puzzle: Exclusion NG 2) | 810 | 421 | – | 322 | – | –
25 | GAUUAUGCGAGCUUUAGGGACAUGAGGAUCACCCAUGUUCGUCUUGUUGAUCUAGGUACGCUAACAUACCUAAAUCU [JMF 6] (puzzle: Sensor v3, turn-off variant 1) | – | – | 28.3 | – | 19.7 | 20.2
26 | GGUCAAGAACAGCGCCGCGCUGCCCUUGACCGCUCAUUUACAUGAGGAUCACCCAUGUUUUUUGCUUGUCUUGUUUC [Tiordiri] (puzzle: Sensor v3, turn-off variant 2) | – | – | 101 | – | 20.6 | 23.7
27 | AAGUAGUGACAGGAUAUUGUUCAUGAUAUGGAACAAGAAGGGUUAACAUGAGGAUCACCCAUGUAUCCUCCGUG [Eternabot (L2) Solution 14] (Eterna round: R97, puzzle: Exclusion 6) | 401 | 44.9 | – | – | – | –
28 | AUCUAGUCAGGAUAUACGAACCGAUGAAUCGGACGGAACGAACAUGAGGAUCACCCAUGUAGAAGGGACACUCA [Candy Rainbow 2] (puzzle: Exclusion 2) | – | – | 142 | – | – | –
29 | CCGCAAAUGGAGGAUAUCGUAUCGGAUACGAUACGAGAAGGCCAAACAUGAGGAUCACCCAUGUGUCCUAGCGG [Fiskers Ex 6 - 37] (puzzle: Exclusion 6) | – | – | 14.2 | – | 30 | 18.6
30 | UUAAUUAGCAGACUAAUACCUCACAUGAGGAUCACCCAUGUGCAGGAUAUCAGCUCGUGUAGAGCUGAGAAGGGCACUGUCUGC [ExNG3/12-A3] (Eterna round: R96, puzzle: Exclusion NG 3) | 17 | 10.8 | – | 10.2 | – | –
31 | AGGAGCAGAGGGAGAUCCAACAUGAGGAUCACCCAUGUCUCAUAAGCUUUUUGCUCAUCUUAUUGUACCUUGGUGCU [Mat - Sensor v3 - turn-off var 1 - JL Mod - D26] (puzzle: Sensor v3, turn-off variant 1) | – | – | 14.3 | – | 35.7 | 37.9
32 | UCCUGACAUGAGGAUCACCCAUGUGAGGAUAUGUGGAUCGAGACAACUCUCGGUCCGUGCAGAAGGCACAGGGC [EX1 A.20] (Eterna round: R97, puzzle: Exclusion 1) | 28.1 | 20.3 | – | – | – | –
33 | UGUCAGAUGGUAGGAUAUCCCUAUCGCGUGUCCCUUUCCUAACAUGAGGAUCACCCAUGUCGGUGGGAGAAGGGCCGUAUGGUG [salish99_ExNG02_R04_036] (Eterna round: R96, puzzle: Exclusion NG 2) | 15.7 | 15.4 | – | 13.6 | – | –
